# Patent publication US20020182666
# T1: recombinant human full-length TyrRS with C-terminal tag of six histidine residues
# T1 chain: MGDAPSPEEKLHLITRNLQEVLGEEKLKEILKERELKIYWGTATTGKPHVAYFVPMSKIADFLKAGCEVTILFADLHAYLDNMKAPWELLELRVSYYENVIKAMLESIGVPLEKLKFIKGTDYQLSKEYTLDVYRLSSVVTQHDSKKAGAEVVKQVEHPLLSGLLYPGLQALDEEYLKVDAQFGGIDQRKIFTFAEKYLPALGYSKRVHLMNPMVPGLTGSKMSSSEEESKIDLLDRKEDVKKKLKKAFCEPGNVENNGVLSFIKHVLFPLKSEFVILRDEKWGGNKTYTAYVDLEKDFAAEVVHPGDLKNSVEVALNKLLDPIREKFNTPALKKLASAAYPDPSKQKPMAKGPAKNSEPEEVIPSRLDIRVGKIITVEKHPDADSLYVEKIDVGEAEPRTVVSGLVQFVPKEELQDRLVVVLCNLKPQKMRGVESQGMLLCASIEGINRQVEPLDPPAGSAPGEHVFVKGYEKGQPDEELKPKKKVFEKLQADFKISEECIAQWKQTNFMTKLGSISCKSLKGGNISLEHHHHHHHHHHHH
# T2: recombinant human full-length TrpRS with C-terminal tag of six histidine residues
# T2 chain: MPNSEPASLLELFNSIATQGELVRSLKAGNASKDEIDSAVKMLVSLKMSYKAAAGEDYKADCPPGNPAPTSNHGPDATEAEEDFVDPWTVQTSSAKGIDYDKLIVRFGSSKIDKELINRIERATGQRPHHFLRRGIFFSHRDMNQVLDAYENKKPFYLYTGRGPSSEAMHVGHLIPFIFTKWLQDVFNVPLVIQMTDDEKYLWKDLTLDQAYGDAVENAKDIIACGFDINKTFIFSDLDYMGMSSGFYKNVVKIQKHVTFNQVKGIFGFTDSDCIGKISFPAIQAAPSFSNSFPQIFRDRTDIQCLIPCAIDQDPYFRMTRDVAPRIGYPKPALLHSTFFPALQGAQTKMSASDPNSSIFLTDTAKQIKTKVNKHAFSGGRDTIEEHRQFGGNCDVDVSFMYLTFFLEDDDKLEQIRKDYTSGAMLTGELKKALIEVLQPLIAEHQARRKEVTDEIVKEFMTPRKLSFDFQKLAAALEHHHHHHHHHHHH
# B1: PMN elastase (protein)
# chain: IVGGRRARPHAWPFMVSLQLRGGHFCGATLIAPNFVMSAAHCVANVNVRAVRVVLGAHNLSRREPTRQVFAVQRIFENGYDPVNLLNDIVILQLNGSATINANVQVAQLPAQGRRLGNGVQCLAMGWGLLGRNRGIASVLQELNVTVVTSLCRRSNVCTLVRGRQAGVCFGDSGSPLVCNGLIHGIASFVRGGCASGLYPDAFAPVAQFVNWIDSIIQ
# Tests used:
# [1] = target: T1, recombinant human full-length TyrRS …
# [2] = target: T2, recombinant human full-length TrpRS …
protein,measurement,setting,value
B1,"cleavage of full-length TyrRS by PMN elastase (SDS-PAGE, immunoblot)",[1],the addition of PMN elastase to full-length TyrRS generated a doublet of ~40 kD fragments and a ~24 kD fragment
same,cleavage of full-length TrpRS by PMN elastase (SDS-PAGE),[2],PMN elastase cleavage of the 54 kDa full-length TrpRS generated a major fragment of 47 kDa and a minor fragment of 44 kDa
